Literature values in article PMC4584479.
Like-named read-outs stand apart in the source and are kept apart here.

Assays:
[1] = target: IL-15Rβ/γc (Homo sapiens) (UniProt P14784)
[2] = target: IL-15Rβ/γc (Homo sapiens) (UniProt P14784); remark: listed apart in the source

Chain of UniProt P14784 (P14784 27-240, chain 1 of 2): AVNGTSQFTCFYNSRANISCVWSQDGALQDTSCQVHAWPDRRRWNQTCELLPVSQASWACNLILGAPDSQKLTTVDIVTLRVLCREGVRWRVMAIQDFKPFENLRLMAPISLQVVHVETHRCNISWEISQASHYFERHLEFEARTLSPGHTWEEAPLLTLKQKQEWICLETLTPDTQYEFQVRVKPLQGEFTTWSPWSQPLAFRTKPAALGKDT
Chain of UniProt P14784 (P31785 23-262, chain 2 of 2, further chain): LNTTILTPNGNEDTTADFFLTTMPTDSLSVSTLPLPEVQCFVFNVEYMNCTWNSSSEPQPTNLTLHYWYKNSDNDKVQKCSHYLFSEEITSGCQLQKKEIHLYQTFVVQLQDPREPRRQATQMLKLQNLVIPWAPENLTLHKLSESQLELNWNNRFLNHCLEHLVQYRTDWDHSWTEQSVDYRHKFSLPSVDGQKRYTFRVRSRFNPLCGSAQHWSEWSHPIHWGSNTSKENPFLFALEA

| Kd [1] | Kd [2] | Substance |
| --- | --- | --- |
| 13.5 nM |  | IL-15 (from UniProt P40933) |
|  | 0.78 nM | IL-15/IL-15Rα-sushi fusion protein (IL-15 hyperagonist) sushi domain of IL-15Rα fused to IL-15 (from UniProt P40933) |
